Positions count from the first letter of the chain named. Names may count otherwise.
How the values were obtained:
fibrillar Aβ = target: T1, fibrillar Aβ (Homo sapiens, UniProt P05067, E693Q); assay: Solid-phase binding assay, competition against biotinylated sAβPPα
T1 construct: made in house; host or cells: chemical synthesis (solid-phase Fmoc)
Procedure: Aβ peptides or amylin were assembled into fibrils as described above. […] Two μg of each fibrillar Aβ peptide, fibrillar amylin, or ovalbumin in 100 μl of phosphate-buffered saline (PBS) were dried in a 96-well microtiter plate (Corning, Cambridge, Mass.) overnight at 37° C. The wells were rinsed with PBS three times and blocked with 100 μl per well PBS containing 1 mg/ml bovine serum albumin (BSA) for 1 hour at room temperature. After rinsing three times with PBS, known concentrations of biotinylated sAβPPα in PBS containing 0.1 mg/ml BSA were incubated in triplicate (100 μl per well) for 1 hour at room temperature. After rinsing the wells with PBS three times, 100 μl of streptavidin conjugated to horseradish peroxidase in PBS containing 0.1 mg/ml BSA (1:800) was added for 1 hour at room temperature. The binding of biotinylated sAβPPα was detected using the colorimetric substrate o-phenylenediamine dihydrocholride as described by the manufacturer (InVitrogen). Briefly, the substrate was diluted in buffer (0.1 M sodium citrate, pH 4.5) to a final concentration of 1 mg/ml. H202 was added to a final concentration of 0.012% immediately before 100 μl of the substrate was added to each microtiter well. […] The conversion of the colorimetric substrate was measured at a wavelength of 490 nm using a Molecular Dynamics Vmax kinetic plate reader (Sunnyvale, Calif.). […]

[1] = target: T2, HCSM cell surface fibrillar Aβ (Homo sapiens, UniProt P05067, E693Q); assay: Endogenous sAβPPα binding to fibrillar Aβ on HCSM cell surface; type: cell-based; details: AβPP-(105-119) at higher concentrations
T2 construct: made in house; host or cells: chemical synthesis (solid-phase Fmoc)

[2] = target: T3, fibrillar Dutch-type Aβ-(1-40) (Homo sapiens, UniProt P05067, E693Q); assay: Solid-phase binding of GST-AβPP-(18-119) proteins to fibrillar Dutch-type Aβ; details: for binding to fibrillar Aβ compared with wild-type GST-AβPP-(18-119): alanine substitution mutants
T3 construct: made in house; host or cells: chemical synthesis (solid-phase Fmoc)
Procedure: (§1) Aβ peptides or amylin were assembled into fibrils as described above. […] Two μg of each fibrillar Aβ peptide, fibrillar amylin, or ovalbumin in 100 μl of phosphate-buffered saline (PBS) were dried in a 96-well microtiter plate (Corning, Cambridge, Mass.) overnight at 37° C. The wells were rinsed with PBS three times and blocked with 100 μl per well PBS containing 1 mg/ml bovine serum albumin (BSA) for 1 hour at room temperature. After rinsing three times with PBS, known concentrations of biotinylated sAβPPα in PBS containing 0.1 mg/ml BSA were incubated in triplicate (100 μl per well) for 1 hour at room temperature. After rinsing the wells with PBS three times, 100 μl of streptavidin conjugated to horseradish peroxidase in PBS containing 0.1 mg/ml BSA (1:800) was added for 1 hour at room temperature. The binding of biotinylated sAβPPα was detected using the colorimetric substrate o-phenylenediamine dihydrocholride as described by the manufacturer (InVitrogen). Briefly, the substrate was diluted in buffer (0.1 M sodium citrate, pH 4.5) to a final concentration of 1 mg/ml. H202 was added to a final concentration of 0.012% immediately before 100 μl of the substrate was added to each microtiter well. The solution was developed for =30 min at room temperature and quenched by the addition of 50 μl of 4N H2SO4 to each well. The conversion of the colorimetric substrate was measured at a wavelength of 490 nm using a Molecular Dynamics Vmax kinetic plate reader (Sunnyvale, Calif.).
(§2) Bound secondary antibody was detected using the colorimetric substrate as described above.
However, this small peptide was not nearly as effective as the larger, recombinantly expressed AβPP-(18-119) in binding to fibrillar Aβ. Therefore, alanine-scanning mutagenesis studies of the AβPP-(105-119) sequence within AβPP-(18-119) were performed to further identify key epitopes important in facilitating its binding to fibrillar Aβ. Alanine residues were introduced from Cys^105 through Cys^117 of AβPP-(18-119) by site-directed mutagenesis of the AβPP-(18-119) cDNA. Each mutant AβPP-(18-119) cDNA was expressed as a GST fusion protein and purified, and the concentrations were carefully determined by quantitative immunoblotting as described in “Experimental Procedures”.

HCSM cells = assay: HCSM cell viability (live/dead assay) after Dutch-type Aβ-(1-40); type: cell-based, human; details: 25 μM Dutch-type Aβ-(1-40), 1 μM protein, 6 days at 37° C.
Description: Primary cultures of HCSM cells were established and characterized. Two lines of HCSM cells were used in these studies. One was derived from a AD patient and the other was derived from a person control. All HCSM cells were used between passages 4-7 and maintained in 24-well tissue culture dishes with Dulbecco's […] containing 10% fetal bovine serum (Gemini Bio-Products, Calabasas, Calif.), non-essential amino acids, and antibiotics (Invitrogen). For experiments, near-confluent cultures of HCSM cells were placed in serum-free medium containing 0.1% BSA, non-essential amino acids, and antibiotics overnight prior to treatment. Freshly solubilized Dutch-type Aβ-(1-40) at a final concentration of 25 μM was added to the cultures in serum-free medium and incubated at 37° C. for 6 days. Cells were routinely viewed and photographed using an Olympus IX70 phase-contrast microscope. Cell viability was quantified using a fluorescent live/dead cell assay following the manufacturer's protocol (Molecular Probes, Eugene, Oreg.). The number of live and dead cells were counted from several fields (n=4) from at least three separate wells for each experiment.
Incubation of HCSM cells with pathogenic Dutch-type Aβ-(1-40) leads to cell death. […]

[3] = target: T4, fibrillar wild-type Aβ-(1-42) (Homo sapiens, UniProt P05067); assay: Solid-phase binding of GST-AβPP-(18-119) proteins to fibrillar wild-type Aβ-(1-42)
T4 construct: made in house; host or cells: chemical synthesis (solid-phase Fmoc)
Procedure: as §1, with “H202 was added to a final concentration of 0.012% immediately before 100 μl of the substrate was added to each microtiter well. The solution was developed for =30 min at room temperature and quenched by the addition of 50 μl of 4N H2SO4 to each well.” left out
as §2

fibrillar amylin peptide = target: T5, fibrillar amylin peptide (Homo sapiens, UniProt P10997); assay: Solid-phase binding of GST-AβPP-(18-119) proteins to fibrillar amylin
T5 construct: Amylin peptide was obtained from Bachem (San Carlos, Calif.); purchased Bachem (San Carlos, Calif.)
T5 sequence (P10997 34-70 limits assumed): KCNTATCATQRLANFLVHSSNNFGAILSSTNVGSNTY
Procedure: as §1, with “H202 was added to a final concentration of 0.012% immediately before 100 μl of the substrate was added to each microtiter well. The solution was developed for =30 min at room temperature and quenched by the addition of 50 μl of 4N H2SO4 to each well.” left out
as §2

Aβ = assay: Recombinant MBP regions tested for ability to bind Aβ and inhibit fibrillogenesis; type: binding; details: Aβ form not stated
Procedure: (§3) Using recombinant methodology to express and purify regions of the 18.5 kDa human MBP protein and test their abilities to bind Aβ and inhibit fibrillogenesis, cDNAs were prepared for the following regions of MBP shown in FIG. 3. The cDNAs for MBP fragments were cloned into pTYB11 plasmids containing an ampr gene and transformed into competent E. coli BL21 DE3 cells. Expression of cDNAs in this vector results in a fusion protein containing a chitin binding domain (CBD) as well as a self-cleavable intein protein from S. cerevisiae. CBD-Intein-MBP fusion proteins were captured on chitin beads from the resulting cell lysates. MBP protein fragments were eluted by inducing the cleavage between the C-terminus of the intein and the N-terminus of MBP by exposure to dithiothreitol. […] MBP was further purified by cation exchange chromatography on CM52 resin, resulting in a >95% pure protein preparations. Each of the four MBP fragments were tested for binding to Dutch/Iowa Aβ40 and wild-type Aβ42 by surface plasmon resonance (FIG. 4).
Such a motif, KRGX1X2X3X4X5X6HP (SEQ ID NO:1), was found in MBP 33-64 and in AβPP 54-64. Specifically, the motif in MBP spans residues 54-64. […]

[4] = target: Dutch/Iowa CAA mutant Aβ40 (Aβ40DI) (Homo sapiens, UniProt P05067, D694N/E693Q); assay: Surface plasmon resonance binding to immobilized Dutch/Iowa Aβ40
Procedure: All runs were performed on a Biacore 2000 instrument using 10 mM HEPES (pH 7.4), 150 mM NaCl, 3 mM EDTA, and 0.005% (v/v) Tween 20 as running buffer and diluent. Streptavidiri was conjugated to the surface of three flow cells of a CM5 chip at 10 μl/min using amine coupling chemistry to a final average response level of 1890.2 response units. N-terminally biotinylated Aβ peptides were resuspended in Me2SO to 2.5 mM and serially diluted to 13 nM immediately before application. Biotinylated Aβ40WT and Aβ40DI were bound to individual flow cells at 10 μl/min to achieve an average relative response level of 157.1 response units, leaving flow cell 1 as reference. […] The resultant Rmax of these surfaces was ˜700 response units with MBP as analyte. Purified MBP was passed over all four flow cells at 5, 10, 25, 50, and 100 nM at a flow rate of 30 μl/min for kinetic measurements. […] Surfaces were regenerated with 0.2 M glycine (pH 2.0) and 150 mM NaCl between runs. The resulting sensorgrams were analyzed by BIAanalysis software. Triplicate concentration series were used for each surface.
as §3

Aβ40DI = Aβ40DI (Homo sapiens, UniProt P05067, D694N/E693Q); assay: Thioflavin T fluorescence assay of Aβ40DI fibril formation; type: biochemical; details: 12.5 μM Aβ40DI, 1.56 μM protein, PBS, 37° C.
Procedure: FIG. 16 Thioflavin T analysis of inhibition of CAA mutant Aβ fibril formation by MBP. Aβ40DI at a concentration of 12.5 μM in PBS in the absence (□) or presence of 1.56 μM MBP(□) or bovine a-lactalbumin (Lalb; □) as a control. At specific time points, aliquots were collected from each sample and analyzed by thioflavin T binding and fluorescence to determine fibrillar assembly. Data represent the means±S.D. of triplicate samples. A.U., arbitrary units.
The Aβ B binding properties of the exemplary fragments of MBP described herein were determined in a thioflavin T fluorescence assay as follows: Lyophilized Aβ peptides were first resuspended with Me2SO to 2.5 mM, diluted to 12.5 μM in PBS, and then incubated at 37° C. with rocking either alone or with 1.56 μM MBP or bovine α-lactalbumin. Control samples containing 0.5% Me2SO and 1.56 μM MBP or lactalbumin in PBS were also included. At each time point, 100 μl samples of each reaction were placed in a 96-well microplate in triplicate, and 5 μl of 100 µM thioflavin T was added. The plate was mixed and incubated at 22° C. in the dark for 10 min. Fluorescence was measured at 490 nm with an excitation wavelength of 446 nm in a SpectraMax spectrofluorometer (Molecular Devices, Sunnyvale, Calif.) using SoftMax Pro control software. It is apparent that the method enables persons of skill in the art to determine the binding properties of MBP, variants thereof, and fragments thereof for any Aβ-peptide, including mutants thereof.

AβPP-(102-116): synthesized overlapping 15-mer peptide of AβPP residues 102-116 (RKQCKTHPHFVIPYR)
competing activity of overlapping 15-mer peptides (fibrillar Aβ; data not shown): approximately half that of AβPP-(105-119)

AβPP-(105-119): synthesized 15 amino acid peptide spanning residues 105-119 of AβPP (CKTHPHFVIPYRCLV)
competition of biotinylated sAβPPα binding to fibrillar Aβ (fibrillar Aβ; 1 mM peptide): ≈ 80% | inhibition of endogenous sAβPPα binding to HCSM cell surface fibrillar Aβ [1]: partially diminish

C117A mutant GST-AβPP-(18-119): GST-AβPP-(18-119) with alanine substitution at Cys117
binding to fibrillar Aβ compared with wild-type GST-AβPP-(18-119) [2]: markedly diminished binding | binding to fibrillar Aβ compared with wild-type GST-AβPP-(18-119) ([2]; listed as C117A): substantially affects

F111A
binding to fibrillar Aβ compared with wild-type GST-AβPP-(18-119) [2]: little or no effect

GST-AβPP-(18-119): glutathione S-transferase fusion protein of AβPP residues 18-119, wild-type
inhibition of endogenous sAβPPα binding to HCSM cell surface fibrillar Aβ [1]: completely inhibited | Aβ-induced HCSM cell death (HCSM cells): < 10%

H110A mutant GST-AβPP-(18-119): GST-AβPP-(18-119) with alanine substitution at His110
fibrillar Aβ binding compared with wild-type GST-AβPP-(18-119) [2]: < 10% | binding to fibrillar Aβ compared with wild-type GST-AβPP-(18-119) ([2]; listed as H110A): markedly decreased binding | binding to fibrillar Aβ compared with wild-type GST-AβPP-(18-119) ([2]; listed as His^110): highly diminished | binding to fibrillar wild-type Aβ-(1-42) compared with wild-type GST-AβPP-(18-119) [3]: considerably reduced binding | binding to fibrillar amylin peptide compared with wild-type GST-AβPP-(18-119) (fibrillar amylin peptide): considerably reduced binding | prevention of Aβ-induced HCSM cell death (HCSM cells): incapable of preventing the cytotoxic effects

I113A: GST-AβPP-(18-119) with alanine substitution at Ile113
binding to fibrillar Aβ compared with wild-type GST-AβPP-(18-119) [2]: markedly decreased binding | binding to fibrillar Aβ compared with wild-type GST-AβPP-(18-119) ([2]; listed as Ile^113): highly diminished | binding to fibrillar wild-type Aβ-(1-42) compared with wild-type GST-AβPP-(18-119) [3]: considerably reduced binding | binding to fibrillar amylin peptide compared with wild-type GST-AβPP-(18-119) (fibrillar amylin peptide): considerably reduced binding

MBP 50-64: MBP residues 50-64, RGAPKRGSGKDSHHP (SEQ ID NO: 51)
abilities to bind Aβ and inhibit fibrillogenesis (Aβ): carries all the binding activity

P109A
binding to fibrillar Aβ compared with wild-type GST-AβPP-(18-119) [2]: little or no effect

B1: MBP1 ΔKRG: MBP1 mutant with alanine substitutions in the KRG region (residues 54-56) (protein)
chain: MASQKRPSQRHGSKYLATASTMDHARHGFLRPHRDTGILDSIGRFFGGDRGAPAAASGKDSHHP
binding to Dutch/Iowa Aβ40 (Aβ40DI) by surface plasmon resonance [4]: do not bind | inhibition of Aβ40DI fibril assembly (thioflavin T) (Aβ40DI): lack fibril inhibition

B2: MBP1 ΔHP: MBP1 mutant with alanine substitutions at HP (residues 63-64) (protein)
chain: B1 chain with A54K, A55R, A56G, H63A, P64A
binding to Dutch/Iowa Aβ40 (Aβ40DI) by surface plasmon resonance [4]: do not bind | inhibition of Aβ40DI fibril assembly (thioflavin T) (Aβ40DI): lack fibril inhibition

B3: MBP1 S57A (protein)
chain: B1 chain with A54K, A55R, A56G, S57A
binding to Dutch/Iowa Aβ40 (Aβ40DI) by surface plasmon resonance [4]: does bind
